# Results from patent publication US20190046652A1 (AADIGEN, published 2019).
# Ends that are not written are not given here.
# B1: C4 (peptide)
# peptide: KKQVRMAHLVLT
# modifications: not fully specified
# B2: C2 (peptide)
# peptide: KKQVLAMEHLVT
# modifications: not fully specified
# B3: PC4, also noted PC4D (peptide)
# peptide: RWTEWEWW
# modifications: also: cyclic version, linkage not given here
# B4: VEPEP-3a (peptide)
# peptide: XKWFERWFREWPRKRR
# HELM: PEPTIDE1{[ac].[bAla].K.W.F.E.R.W.F.R.E.W.P.R.K.R.R.[SCCN[*:1]]}$$$$V2.0
# SMILES: CC(=O)NCCC(=O)N[C@@H](CCCCN)C(=O)N[C@@H](Cc1c[nH]c2ccccc12)C(=O)N[C@@H](Cc1ccccc1)C(=O)N[C@@H](CCC(=O)O)C(=O)N[C@@H](CCCNC(=N)N)C(=O)N[C@@H](Cc1c[nH]c2ccccc12)C(=O)N[C@@H](Cc1ccccc1)C(=O)N[C@@H](CCCNC(=N)N)C(=O)N[C@@H](CCC(=O)O)C(=O)N[C@@H](Cc1c[nH]c2ccccc12)C(=O)N1CCC[C@H]1C(=O)N[C@@H](CCCNC(=N)N)C(=O)N[C@@H](CCCCN)C(=O)N[C@@H](CCCNC(=N)N)C(=O)N[C@@H](CCCNC(=N)N)C(=O)NCCS
# notes: Synthetic cell-penetrating peptide
# How the values were obtained:
# CDK4/cyclin D complex = CDK4/cyclin D complex (UniProt P11802 2-303); assay: cell-based or functional assay
# CDK4/cyclin D complex, sequence (P11802 2-303, one chain of several): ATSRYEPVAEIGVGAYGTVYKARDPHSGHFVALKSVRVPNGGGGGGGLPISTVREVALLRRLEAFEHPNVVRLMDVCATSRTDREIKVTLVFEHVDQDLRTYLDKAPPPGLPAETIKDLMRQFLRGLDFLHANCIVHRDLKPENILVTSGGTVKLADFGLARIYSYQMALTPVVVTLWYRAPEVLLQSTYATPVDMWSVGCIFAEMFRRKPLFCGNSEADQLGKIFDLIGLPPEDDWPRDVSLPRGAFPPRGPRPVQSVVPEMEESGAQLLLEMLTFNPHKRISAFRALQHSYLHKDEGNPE
# HIV integrase = HIV integrase (HIV-1-LAI, UniProt P03367 1160-1447); assay: cell-based or functional assay
# cdk2/cyclin A complex = cdk2/cyclin A complex (UniProt P24941 1-298; P20248 1-432); assay: cell-based or functional assay
# PC4, also noted PC4D = target: B3; assay: fluorescence titration, curve fitting
# C4 = target: B1; assay: fluorescence titration, curve fitting
# C2 = target: B2; assay: fluorescence titration, curve fitting
binder,measurement,setting,value
B1,"IC50, proliferation of HEK-2 cells (C4 delivered by VEPEP-3)",CDK4/cyclin D complex,78 nM
same,"IC50, proliferation of Hela cells (C4 delivered by VEPEP-3)",CDK4/cyclin D complex,35 nM
same,"IC50, proliferation of MCF7 cells (C4 delivered by VEPEP-3)",CDK4/cyclin D complex,58 nM
"KWETWWET [PC6, also noted PC6D]","IC50, antiviral activity (RT activity in supernatants of HIV-1 LAI infected PBMC), peptide with VEPEP-3 carrier",HIV integrase,0.09 nM
B2,"IC50, proliferation of HEK-2 cells (C2 delivered by VEPEP-3)",cdk2/cyclin A complex,102 nM
same,"IC50, proliferation of Hela cells (C2 delivered by VEPEP-3)",cdk2/cyclin A complex,37 nM
B3,"IC50, antiviral activity (RT activity in supernatants of HIV-1 LAI infected PBMC), peptide with VEPEP-3 carrier",HIV integrase,0.12 nM
B4,Kd,"PC4, also noted PC4D",50 to 100 nM
same,binding result,C4,binds
same,binding result,C2,binds
